Measurements taken from the RNAGym collection of RNA variant scans (doi:10.1073/pnas.2313332121).
Variants at the floor of the assay were thinned out.

B1: TPR 5TU (parent)
chain: GGAUCUUCUCGAUCUAACAAAAAAGACAAAUCUGCCACAAAGCUUGAGAGCAUCUUCGGAUGCAGAGGCGGCAGCCUUCGGUGGCGCGAUAGCGCCAACGUUCUCAACUAUGACACGCAAAACGCGUGCUCCGUUGAAUGGAGUUUAUCAUG

Variants of: B1
Assay: polymerase ribozyme fitness, log enrichment relative to wild type (log ratio); higher = more active; in vitro selection for triplet polymerase activity
Summary of the method: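 Frozen incubation at −7 °C formed the core of a single, triplicate in vitro selection round applied to PCR-built, transcribed mutant libraries of each subunit of a heterodimeric triplet polymerase ribozyme. Extended constructs were gel-excised, captured with streptavidin beads and amplified by RT-PCR, and input and output libraries were Illumina-sequenced with a filter of ≥10 input reads and ≥1 read per output. Fitness is the logarithm of genotype enrichment relative to wild-type enrichment, with inverse-variance-weighted replicate averaging, and the logarithm is base 2.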
For U4A C76A C93A A115G G124C C149U, the “polymerase ribozyme fitness (log ratio)” value was ≤ -4.2.
With C5G A16C G59U C96A the “polymerase ribozyme fitness (log ratio)” value was -2.66.
For U6A A17G G58C A60C C69U C118U U146C, the “polymerase ribozyme fitness (log ratio)” value was -4.14.
With C5U A21U G84A C131A the “polymerase ribozyme fitness (log ratio)” value was -2.96.
With U6A A26U U53G C103A U109C the “polymerase ribozyme fitness (log ratio)” value was ≤ -4.2.
For U4G G141U, the “polymerase ribozyme fitness (log ratio)” value was 0.552.
In the case of U4C U55A G86U, the “polymerase ribozyme fitness (log ratio)” value is reported as -2.08.
In the case of C5U A37U C51U, the “polymerase ribozyme fitness (log ratio)” value is reported as -1.26.
In the case of C5U U6C C10U G83C, the “polymerase ribozyme fitness (log ratio)” value is reported as -2.89.
In the case of C5U A21G U139C U146A, the “polymerase ribozyme fitness (log ratio)” value is reported as -3.99.
In the case of C5G C108U, the “polymerase ribozyme fitness (log ratio)” value is reported as -3.65.
In the case of U4A C27U C38U C51U A106G U109A, the “polymerase ribozyme fitness (log ratio)” value is reported as -3.72.
In the case of U6A A19G C99A, the “polymerase ribozyme fitness (log ratio)” value is reported as -2.14.
For U4C A49U C93A, the “polymerase ribozyme fitness (log ratio)” value was -3.07.
For U4G C51G A73U C87U C96A G117A, the “polymerase ribozyme fitness (log ratio)” value was ≤ -4.2.
For C5U G143C, the “polymerase ribozyme fitness (log ratio)” value was -1.95.
In the case of C5A C36G A49C U61A G84A, the “polymerase ribozyme fitness (log ratio)” value is reported as ≤ -4.2.
With C5A A22U A24U C27G A39C C57U A60U C85G the “polymerase ribozyme fitness (log ratio)” value was ≤ -4.2.
In the case of C5U A20U G50C G81A G117A C132U, the “polymerase ribozyme fitness (log ratio)” value is reported as ≤ -4.2.
For U4A G84A U101G, the “polymerase ribozyme fitness (log ratio)” value was -0.65.
With U4G A26G U33A C54G G86A G88U U90G the “polymerase ribozyme fitness (log ratio)” value was ≤ -4.2.
In the case of C5G C87U A98G, the “polymerase ribozyme fitness (log ratio)” value is reported as -1.31.
In the case of U6A C85U C95A A120G, the “polymerase ribozyme fitness (log ratio)” value is reported as -1.78.
With C5A C14G G59A C85A C118G U139A the “polymerase ribozyme fitness (log ratio)” value was ≤ -4.2.
For C5U A19G A21G A29G C87G C95G, the “polymerase ribozyme fitness (log ratio)” value was ≤ -4.2.
For C5A A22C C38A G71A A89C, the “polymerase ribozyme fitness (log ratio)” value was ≤ -4.2.
With C5U C35U U77G C85G A89U A110C U144G the “polymerase ribozyme fitness (log ratio)” value was ≤ -4.2.
For U6C A47U, the “polymerase ribozyme fitness (log ratio)” value was -0.576.
For C5U A22U C69A G88U, the “polymerase ribozyme fitness (log ratio)” value was ≤ -4.2.
For U4G A47C C51U G80A G84A G94U A97U, the “polymerase ribozyme fitness (log ratio)” value was ≤ -4.2.
For U4C G50C G62A G84A G92C, the “polymerase ribozyme fitness (log ratio)” value was ≤ -4.2.
In the case of C5G G50C A122U C125U, the “polymerase ribozyme fitness (log ratio)” value is reported as -3.46.
With U6A A24U A60G the “polymerase ribozyme fitness (log ratio)” value was 0.116.
In the case of C5G C32U U53G A73U C85U, the “polymerase ribozyme fitness (log ratio)” value is reported as ≤ -4.2.
For C5A U13G C27A C36A C51U C87A, the “polymerase ribozyme fitness (log ratio)” value was ≤ -4.2.
For U6A C54U C85G A115C, the “polymerase ribozyme fitness (log ratio)” value was -2.97.
With C5G G80A the “polymerase ribozyme fitness (log ratio)” value was 0.101.
With C5G U55A C85U C116U the “polymerase ribozyme fitness (log ratio)” value was -1.06.
In the case of C5U A16U C54U C87U G117A A119U, the “polymerase ribozyme fitness (log ratio)” value is reported as -1.75.
For C5A A64G A66G U134G, the “polymerase ribozyme fitness (log ratio)” value was ≤ -4.2.
In the case of C5U A26U, the “polymerase ribozyme fitness (log ratio)” value is reported as -1.04.
In the case of C5G U31A A147C, the “polymerase ribozyme fitness (log ratio)” value is reported as -0.56.
In the case of C5A G34A, the “polymerase ribozyme fitness (log ratio)” value is reported as 0.15.
In the case of C5U C14U C38A C57A A66U G67A G84U A110G, the “polymerase ribozyme fitness (log ratio)” value is reported as ≤ -4.2.
For C5G A12G C63U G84C C96U, the “polymerase ribozyme fitness (log ratio)” value was ≤ -4.2.
For C5A A24C G80C C149G, the “polymerase ribozyme fitness (log ratio)” value was ≤ -4.2.
In the case of C5U G62A U90G A138G A142U, the “polymerase ribozyme fitness (log ratio)” value is reported as ≤ -4.2.
For C5G G50U G84U, the “polymerase ribozyme fitness (log ratio)” value was -1.65.
For U4A C35A U53C C96G A122U, the “polymerase ribozyme fitness (log ratio)” value was ≤ -4.2.
For U4G C10G A24U C35U U55G G83A C116A, the “polymerase ribozyme fitness (log ratio)” value was ≤ -4.2.
With U4C A24U U61A the “polymerase ribozyme fitness (log ratio)” value was -1.7.
For U4G A37C G50U G59U G86U, the “polymerase ribozyme fitness (log ratio)” value was -3.71.
For U6A A142C, the “polymerase ribozyme fitness (log ratio)” value was -0.741.
In the case of C5A G59U C69U G94U A98G U102G U135C, the “polymerase ribozyme fitness (log ratio)” value is reported as ≤ -4.2.
In the case of C5G A21U G59A, the “polymerase ribozyme fitness (log ratio)” value is reported as -0.0281.
With U4C C32G C103G the “polymerase ribozyme fitness (log ratio)” value was ≤ -4.2.
For U4G A73G G92U A107U A122U, the “polymerase ribozyme fitness (log ratio)” value was -3.96.
With U4C U53A C76G U90C U145C the “polymerase ribozyme fitness (log ratio)” value was ≤ -4.2.
For U4G G67A C85U C116A A122U A150U G152C, the “polymerase ribozyme fitness (log ratio)” value was ≤ -4.2.
In the case of U4C A147C, the “polymerase ribozyme fitness (log ratio)” value is reported as -0.0283.
In the case of C5G A29U U55G U78A G92C C118U U145A, the “polymerase ribozyme fitness (log ratio)” value is reported as ≤ -4.2.
For C5A A91U, the “polymerase ribozyme fitness (log ratio)” value was -4.1.
For U4G G34A C96G A97U C123A C132A, the “polymerase ribozyme fitness (log ratio)” value was ≤ -4.2.
With C5A G58C A60G G92A A121U the “polymerase ribozyme fitness (log ratio)” value was -1.56.
In the case of U4C C8A G59A, the “polymerase ribozyme fitness (log ratio)” value is reported as -4.18.
With U4G U13C A19G A52G U56G A64U G80C A91G C95G C105U U109A A119U the “polymerase ribozyme fitness (log ratio)” value was ≤ -4.2.
With C5G G59A the “polymerase ribozyme fitness (log ratio)” value was -0.858.
For C5G U139A, the “polymerase ribozyme fitness (log ratio)” value was -3.99.
For U4C A23C C43U G46A G84A C105G C118U A119C, the “polymerase ribozyme fitness (log ratio)” value was ≤ -4.2.
In the case of U6A U15G G46C C76U C93G, the “polymerase ribozyme fitness (log ratio)” value is reported as ≤ -4.2.
In the case of U6A C79A C99U A107G, the “polymerase ribozyme fitness (log ratio)” value is reported as ≤ -4.2.
With U4G G48A U77G G83C U135A the “polymerase ribozyme fitness (log ratio)” value was ≤ -4.2.
In the case of U4A U13C C36U C96G, the “polymerase ribozyme fitness (log ratio)” value is reported as -2.21.
For C5U A22U A98G A122U, the “polymerase ribozyme fitness (log ratio)” value was 0.571.
For U6A A22U, the “polymerase ribozyme fitness (log ratio)” value was 0.00924.
With U4C C76U the “polymerase ribozyme fitness (log ratio)” value was -0.762.
For U4G C54G G80C G92U A115C, the “polymerase ribozyme fitness (log ratio)” value was ≤ -4.2.
In the case of C5A U33G C38U A49C G67C G92C, the “polymerase ribozyme fitness (log ratio)” value is reported as ≤ -4.2.
With C5A C93U A98G C103A the “polymerase ribozyme fitness (log ratio)” value was -3.31.
For C5A A20C A41G C93A A147C, the “polymerase ribozyme fitness (log ratio)” value was -1.66.
In the case of C5G A20C C32A G50C G124C G141C, the “polymerase ribozyme fitness (log ratio)” value is reported as ≤ -4.2.
With C5U A20G A49U G86U the “polymerase ribozyme fitness (log ratio)” value was -3.71.
In the case of U6A A23C C76G G94A G141C G152U, the “polymerase ribozyme fitness (log ratio)” value is reported as ≤ -4.2.
